Drawing on patent publication US20200010567A1 (NEURIMMUNE, published 2020), this text covers binding result and EC50 for 5 molecules.

Experiment [1] addresses T1, (GA)15: H-CHHHHHH(GA)15-OH.
T1 construct: synthetic, not coupled to BSA; also called poly-GA DPR protein peptide
T1 peptide: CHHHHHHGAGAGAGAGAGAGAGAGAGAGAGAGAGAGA
In words: indirect ELISA, coated peptide. (An ELISA detects its analyte on a solid surface through an enzyme-linked reagent.)

Experiment [2] deals with T2, BSA-coupled (PR)15 DPR protein peptide (bovine, conjugated via a bifunctional linker (SMCC) to bovine serum albumin).
T2 construct: also called BSA-(PR)15
Nature of the experiment: indirect ELISA, BSA-coupled peptide coated, antibody titrated [also D00013 FIG. 3F]. On the procedure: (§1) In brief, dipeptide repeat proteins were synthesized and purified by Schafer-N(Copenhagen, Denmark): (GA)₁₅: H-CHHHHHH(GA)₁₅-OH; (GP)₁₅: H-C(GP)₁₅-OH; (GR)₁₅: H-C(GR)₁₅-OH; (PA)₁₅: H-C(PA)₁₅-OH; (PR)₁₅: H—C(PR)₁₅-OH. DPR protein peptides were then conjugated via a bifunctional linker (SMCC) to bovine serum albumin (BSA). 96-well microplates (Corning Incorporated, Corning, USA) were coated with BSA-coupled or -uncoupled dipeptide repeat protein peptides at a concentration of either 5 μg/ml or 20 μg/ml in coating buffer (15 mM Na₂CO₃, 35 mM NaHCO₃, pH 9.42). Non-specific binding sites were blocked for 1 h at room temperature with PBS/0.1% Tween®-20 containing 2% BSA (Sigma-Aldrich, Buchs, Switzerland). Primary antibodies were diluted to the indicated concentrations and incubated 1 h at room temperature, followed by incubation with a donkey anti-human IgG Fcγ-specific antibody conjugated with HRP (Jackson ImmunoResearch Laboratories, Inc., West Grove, USA). Binding was determined by measurement of HRP activity in a standard colorimetric assay. EC₅₀ values were estimated by non-linear regression using GraphPad Prism software (San Diego, USA).

For a further experiment, the target named is T3, GR2: H-(GR)2HHHHHH-NH2.
T3 peptide: H-GRGRHHHHHH-NH2
Nature of the experiment: indirect ELISA, His-tagged peptide coated at 50 ug/ml, antibody titrated [also D00026 FIG. 7L]. On the procedure: as §1, with “96-well” for “In brief, dipeptide repeat proteins were synthesized and purified by Schafer-N(Copenhagen, Denmark): (GA)₁₅: H-CHHHHHH(GA)₁₅-OH; (GP)₁₅: H-C(GP)₁₅-OH; (GR)₁₅: H-C(GR)₁₅-OH; (PA)₁₅: H-C(PA)₁₅-OH; (PR)₁₅: H—C(PR)₁₅-OH. DPR protein peptides were then conjugated via a bifunctional linker (SMCC) to bovine serum albumin (BSA). 96-well”, “with” for “with BSA-coupled or -uncoupled”, “50” for “either 5 μg/ml or 20”
(§2) High affinity binding was detected for poly-GA DPRs harboring 10 or 20 (GA)-repeats, reflected in an EC₅₀ in the subnanomolar or low nanomolar range (FIGS. 7A, 7C-7I).

In experiment [3] the target is T1, (GA)15: H-CHHHHHH(GA)15-OH. In words: indirect ELISA, uncoupled peptide coated, antibody titrated [also D00012 FIG. 3C]. On the procedure:
as §1

In experiment [4] the target is T1, (GA)15: H-CHHHHHH(GA)15-OH. In words: indirect ELISA, uncoupled peptide coated, antibody titrated [also D00010 FIG. 2H]. How it is done:
as §1, with “(PR)₁₅: H—C(PR)₁₅-OH. 96-well microplates” for “(PR)₁₅: H—C(PR)₁₅-OH. DPR protein peptides were then conjugated via a bifunctional linker (SMCC) to bovine serum albumin (BSA). 96-well microplates”, “coated with dipeptide repeat” for “coated with BSA-coupled or -uncoupled dipeptide repeat”, “and incubated for 1 h” for “and incubated 1 h”, “Diego, USA). The binding specificity and EC₅₀ of human-derived antibodies for C9orf72 dipeptide repeat protein peptides (GA)₁₅, (GP)₁₅, (GR)₁₅, (PA)₁₅ and (PR)₁₅ were determined by indirect ELISA.” for “Diego, USA).”

Experiment [5] has as its target T4, BSA-coupled (GA)15 DPR protein peptide (bovine, conjugated via a bifunctional linker (SMCC) to bovine serum albumin).
T4 construct: also called BSA-(GA)15
Nature of the experiment: indirect ELISA, BSA-coupled peptide coated, antibody titrated [also D00013 FIG. 3D]. On the procedure: as §1

The next experiment addresses T5, GA4: H-(GA)4HHHHHH-NH2.
T5 peptide: H-GAGAGAGAHHHHHH-NH2
In words: indirect ELISA, His-tagged peptide coated at 50 ug/ml, antibody titrated [also D00025 FIG. 7H]. On the procedure: as §1, with “96-well” for “In brief, dipeptide repeat proteins were synthesized and purified by Schafer-N(Copenhagen, Denmark): (GA)₁₅: H-CHHHHHH(GA)₁₅-OH; (GP)₁₅: H-C(GP)₁₅-OH; (GR)₁₅: H-C(GR)₁₅-OH; (PA)₁₅: H-C(PA)₁₅-OH; (PR)₁₅: H—C(PR)₁₅-OH. DPR protein peptides were then conjugated via a bifunctional linker (SMCC) to bovine serum albumin (BSA). 96-well”, “with” for “with BSA-coupled or -uncoupled”, “50” for “either 5 μg/ml or 20”
as §2

For another experiment, the target named is T6, GA3: H-(GA)3HHHHHH-NH2.
T6 peptide: H-GAGAGAHHHHHH-NH2
The description is as above. How it is done: as §1, with “96-well” for “In brief, dipeptide repeat proteins were synthesized and purified by Schafer-N(Copenhagen, Denmark): (GA)₁₅: H-CHHHHHH(GA)₁₅-OH; (GP)₁₅: H-C(GP)₁₅-OH; (GR)₁₅: H-C(GR)₁₅-OH; (PA)₁₅: H-C(PA)₁₅-OH; (PR)₁₅: H—C(PR)₁₅-OH. DPR protein peptides were then conjugated via a bifunctional linker (SMCC) to bovine serum albumin (BSA). 96-well”, “with” for “with BSA-coupled or -uncoupled”, “50” for “either 5 μg/ml or 20”
as §2

The next experiment addresses T7, GA2: H-(GA)2HHHHHH-NH2.
T7 peptide: H-GAGAHHHHHH-NH2
The description is as above. How it is done:
as §1, with “96-well” for “In brief, dipeptide repeat proteins were synthesized and purified by Schafer-N(Copenhagen, Denmark): (GA)₁₅: H-CHHHHHH(GA)₁₅-OH; (GP)₁₅: H-C(GP)₁₅-OH; (GR)₁₅: H-C(GR)₁₅-OH; (PA)₁₅: H-C(PA)₁₅-OH; (PR)₁₅: H—C(PR)₁₅-OH. DPR protein peptides were then conjugated via a bifunctional linker (SMCC) to bovine serum albumin (BSA). 96-well”, “with” for “with BSA-coupled or -uncoupled”, “50” for “either 5 μg/ml or 20”
as §2

T4 sequence (P02769 25-607 limits assumed): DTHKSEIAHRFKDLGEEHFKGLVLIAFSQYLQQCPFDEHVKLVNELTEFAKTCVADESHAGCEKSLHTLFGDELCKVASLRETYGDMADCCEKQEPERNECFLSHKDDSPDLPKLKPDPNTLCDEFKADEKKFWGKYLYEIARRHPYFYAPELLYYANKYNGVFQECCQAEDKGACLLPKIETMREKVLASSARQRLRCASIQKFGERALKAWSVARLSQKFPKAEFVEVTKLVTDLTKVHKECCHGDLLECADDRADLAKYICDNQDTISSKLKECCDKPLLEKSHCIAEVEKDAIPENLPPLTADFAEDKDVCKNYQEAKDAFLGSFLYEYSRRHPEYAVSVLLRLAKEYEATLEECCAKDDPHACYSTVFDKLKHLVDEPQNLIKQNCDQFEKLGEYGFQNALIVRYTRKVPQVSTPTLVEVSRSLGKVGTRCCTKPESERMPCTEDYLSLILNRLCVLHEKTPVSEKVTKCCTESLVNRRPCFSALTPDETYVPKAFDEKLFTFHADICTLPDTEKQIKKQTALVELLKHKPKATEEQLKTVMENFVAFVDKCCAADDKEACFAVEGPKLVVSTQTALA
T2 sequence (peptide, as listed by the source limits assumed, chain 1 of 2): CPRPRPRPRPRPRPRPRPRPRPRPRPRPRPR
T2 sequence (P02769 25-607 limits assumed, chain 2 of 2): as the sequence (P02769 25-607 limits assumed) above

B1: NI-308.24E11 (antibody, V domains shown)
VH: QVQLQESGPGLVKPSETLSLTCTVSTTSLRSYFWSWIRQPPGKGLEWIGYVYYSGSTIYNPSLKNRVTISIDTSKNQFSLNLRSVTAADTAMYFCARGVPAETDARDFPPYYFDHWGQGTLVTVSS
VL: CDIQLTQSPSSLSASVGNRITFTCQASQDIRYYLNWYQQKPGKAPKLLIYDVSNLDTGVPPRFSGSGSGTNFTFTISSLQPEDIAVYYCQQYEGLPVTFGGGTKVEIK
notes: Recombinant complete human IgG1, kappa
Usually EC50 stands for the concentration at which the effect is half-maximal. In the case of B1, the binding result in experiment [1] was “no binding”. In addition, the EC50 in experiment [2] was more than 200 nM.

B2: NI-308.6B11 (antibody, V domains shown)
VH: EVQLVQSGAEVKRPGASVKVSCKVSGYTLTELSMHWVRQAPGKGLEWMGGFDPEDGETVYAQKFQGRVTMTEDTSTDTAYMELSSLRSEDTALYHCATYGSSWHWNEGNEGSYYFDYWGQGTLVTVSS
VL: CDIQMTQSPSSLSASVGDRVTITCQASQDISIYLNWYQQKPGKAPKLLIYDASNLETGVPSRFSGSGSGTDFTFTISGLQPEDVARYYCQQYDDLPITFGQGTRLEIK
notes: as for B1
B2: the binding result in the experiment with GR2: H-(GR)2HHHHHH-NH2 is reported as “no binding (tested: about 4x10^5 pM (last point))”.

B3: NI-308.15O7 (antibody, V domains shown)
VH: QVQLVESGGGVVQPGRSLRLSCAASGFTFSNHAMHWVRQAPGKGLEWVAVISYDGENTYYADSIEGRFTISRDNFKNTLFLQMYSLTADDTAMYFCARGGRRGHFTSYYLDYWGQGTLVTVSS
VL: CDIQMTQSPSSLSASVGDRVTITCRASQNIDKYLNWYQQIPGKAPKLLIYAASSLHSGVPSRFSGSGSGTDFSLTISSLQPEDFAIYYCQQSYSSFRTFGQGTKLEIK
B3 had an EC50 in experiment [3] of 0.18 nM. That is a sub-nanomolar value.

B4: NI-308.46E9 (antibody, V domains shown)
VH: QVQLQESGPGLVKPSETLSLTCTVSGASISGSTYYWGWIRQPPGKGLEYIGRIYYSGSTYYNPSLKSRATISVDTSKNQLSLTLSSVTAADTAVYYCVRPFYAGSGNSPFDYWGQGTLVTVSS
VL: CEIVLTQSPATVSVSPGERATLSCRASQSVSTNLAWYQQKPGQPPRLLIYGASTRATGIPARFSGSGSGAEFTLTISSLQSEDFVVYYCQQYNNWPPAFGGGTKVEIK
notes: as for B1
In experiment [4], B4 yielded an EC50 of more than 200 nM.

B5: NI-308.28G1 (antibody, V domains shown)
VH: QVQLQESGPRLVKPSETLSLTCTVAGGSVNSYYWTWIQQSPGKGLEWLGRIYIAGRTNYNPSLTSRIALSVDTSRNQLSLKLTSVTAADTAIYYCARWGAESGDYYYGVDVWGPGTLVTVSS
VL: EIVMTQSPLSLPVTPGEPASISCKSSEGLLHSNGYTYLDWYLQKPGQAPQLLIFLASNRAAGVPDRFSGSGSGTDFTLKISRVEAEDVGVYYCMQAIQSPWTFGPGTKVEIK
notes: as for B1
B5 had an EC50 in [5] of 0.66 nM. In addition, the binding result with GA4: H-(GA)4HHHHHH-NH2, with GA3: H-(GA)3HHHHHH-NH2 and in the experiment with GA2: H-(GA)2HHHHHH-NH2 was “no binding (tested: about 4x10^5 pM (last point))” each time.
